According to patent US20150368338A1 (Janssen / Centocor, published 2015):

T1: IFN-αF (human, UniProt P01568 24-189)
T1 chain: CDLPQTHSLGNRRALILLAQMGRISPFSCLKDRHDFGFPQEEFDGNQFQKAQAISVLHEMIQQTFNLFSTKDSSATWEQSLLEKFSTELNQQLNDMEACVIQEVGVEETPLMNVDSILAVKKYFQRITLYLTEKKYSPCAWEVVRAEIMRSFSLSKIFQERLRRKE


What was measured:
IFN-αH2 = IFN-αH2 (human, UniProt P01570 24-189); assay: cell-based or functional assay
IFN-αC [1] = target: T2, IFN-αC (human, UniProt P01566 24-189); assay: cell-based or functional assay
IFN-αF [2] = target: T1, IFN-αF; assay: cell-based or functional assay
IFN-αG [3] = target: T3, IFN-αG (human, UniProt P01569 24-189); assay: cell-based or functional assay
human IFN-ω = target: T4, human IFN-ω (human, UniProt P05000 24-195); assay: ProteOn SPR, cell supernatant;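 note: each binding measurement used just a single antigen concentration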
T4 construct: Recombinant, HEK293; also called interferon omega

IFN-αC [4] = target: T2, IFN-αC; assay: ProteOn SPR, cell supernatant;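 note: each binding measurement used just a single antigen concentration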
IFN-αF [5] = target: T1, IFN-αF; assay: ProteOn SPR, cell supernatant;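 note: each binding measurement used just a single antigen concentration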
IFN-αJ1 = target: T5, IFN-αJ1 (human, UniProt P01567 24-189); assay: ProteOn SPR, cell supernatant;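 note: each binding measurement used just a single antigen concentration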
T5 construct: Recombinant, HEK293; also called IFN-α7

IFN-α4a = target: T6, IFN-α4a (human, UniProt P05014 24-189); assay: ProteOn SPR, cell supernatant;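 note: each binding measurement used just a single antigen concentration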
T6 construct: Recombinant, HEK293; also called IFN-αM1

IFN-αG [6] = target: T3, IFN-αG; assay: ProteOn SPR, cell supernatant;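 note: each binding measurement used just a single antigen concentration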
IFN-αWA = target: T7, IFN-αWA (human, UniProt P05015 24-189); assay: ProteOn SPR, cell supernatant
T7 construct: Recombinant, HEK293; also called IFN-α16

Row | Binder | IC50, ISRE assay (IFN-αH2) | IC50, ISRE assay (IFN-αC [1]) | IC50, ISRE assay (IFN-αF [2]) | IC50, ISRE assay (IFN-αG [3]) | Kd (human IFN-ω) | Kd (IFN-αC [4]) | Kd (IFN-αF [5]) | Kd (IFN-αJ1) | Kd (IFN-α4a) | Kd (IFN-αG [6]) | Kd (IFN-αWA)
1 | IFWM3385 (antibody, IgG1, V domains shown, mAb; IgG1/kappa said of the parent and of selected mAbs; also called IFWB3120) VH: EVQLVQSGAEVKKPGESLKISCKGSGYSFTSYWIGWVRQMPGKGLEWMGIIDPSDSDTRYSPSFQGQVTISADKSISTAYLQWSSLKASDTAMYYCARHPGLAWAPDFDYWGQGTLVTVSS VL: DIQMTQSPSSLSASVGDRVTITCRASQSIGDFLNWYQQKPGKAPKLLIYFASSLQSGVPSRFSGSGSGTDFTLTISSLQPEDFATYYCQQALDFPLTFGQGTKVEIK | 0.029 nM | 0.272 nM | 0.066 nM | 0.077 nM | 0.032 nM | 0.041 nM | 0.041 nM | 0.142 nM | 0.178 nM | 0.023 nM | 0.052 nM
2 | IFWM3405 (antibody, IgG1, V domains shown, mAb; IgG1/kappa said of the parent and of selected mAbs; also called IFWB3140) VH: EVQLVQSGAEVKKPGESLKISCKGSGYSFTSYWIGWVRQMPGKGLEWMGIIDPSDSDTRYSPSFQGQVTISADKSISTAYLQWSSLKASDTAMYYCARHPGLAWAPDFDYWGQGTLVTVSS VL: DIQMTQSPSSLSASVGDRVTITCRASQSIANNNLNWYQQKPGKAPKLLIHWASSLQSGVPSRFSGSGSGTDFTLTISSLQPEDFATYYCQQGYDTPFTFGQGTKVEIK | 0.016 nM | 0.068 nM | 0.035 nM | 0.026 nM | 0.02 nM | 0.022 nM | 0.019 nM | 0.036 nM | 0.067 nM | 0.015 nM | 0.039 nM
3 | IFWM3310 (antibody, IgG1, V domains shown) VH: EVQLVQSGAEVKKPGESLKISCKGSGYSFTSYWIGWVRQMPGKGLEWMGIIDPSDSDTRYSPSFQGQVTISADKSISTAYLQWSSLKASDTAMYYCARHPGLNWAPDFDYWGQGTLVTVSS VL: DIQMTQSPSSLSASVGDRVTITCRASQSIGKSLNWYQQKPGKAPKLLIYFASSLQSGVPSRFSGSGSGTDFTLTISSLQPEDFATYYCQQSYDFPLTFGQGTKVEIK | 0.045 nM | 0.196 nM | 0.111 nM | 0.073 nM | – | – | – | – | – | – | –
4 | IFWM3322 (antibody, IgG1, V domains shown) VH: EVQLVQSGAEVKKPGESLKISCKGSGYSFTSYWIGWVRQMPGKGLEWMGIIDPSDSDTRYSPSFQGQVTISADKSISTAYLQWSSLKASDTAMYYCARHPGLNWAPDFDYWGQGTLVTVSS VL: DIQMTQSPSSLSASVGDRVTITCRASQSIADFLNWYQQKPGKAPKLLIYFASSLQSGVPSRFSGSGSGTDFTLTISSLQPEDFATYYCQQSHSFPLTFGQGTKVEIK | 0.046 nM | 0.306 nM | 0.117 nM | 0.083 nM | – | – | – | – | – | – | –
5 | IFWM3328 (antibody, IgG1, V domains shown) VH: EVQLVQSGAEVKKPGESLKISCKGSGYSFTSYWIGWVRQMPGKGLEWMGIIDPSDSDTRYSPSFQGQVTISADKSISTAYLQWSSLKASDTAMYYCARHPGLNWAPDFDYWGQGTLVTVSS VL: DIQMTQSPSSLSASVGDRVTITCRASQSINNLNWYQQKPGKAPKLLIYWASSLQSGVPSRFSGSGSGTDFTLTISSLQPEDFATYYCQQGYDTPFTFGQGTKVEIK | 0.44 nM | 1.42 nM | 0.631 nM | 0.486 nM | – | – | – | – | – | – | –
6 | IFWM3320 (antibody, IgG1, V domains shown) VH: EVQLVQSGAEVKKPGESLKISCKGSGYSFTSYWIGWVRQMPGKGLEWMGIIDPSDSDTRYSPSFQGQVTISADKSISTAYLQWSSLKASDTAMYYCARHPGLNWAPDFDYWGQGTLVTVSS VL: DIQMTQSPSSLSASVGDRVTITCRASQSINGVLNWYQQKPGKAPKLLIYFASSLQSGVPSRFSGSGSGTDFTLTISSLQPEDFATYYCQQSHDFPLTFGQGTKVEIK | 0.023 nM | 0.392 nM | 0.054 nM | 0.082 nM | – | – | – | – | – | – | –
7 | IFWM3400 (antibody, IgG1, V domains shown, mAb; IgG1/kappa said of the parent and of selected mAbs; also called IFWB3135) VH: EVQLVQSGAEVKKPGESLKISCKGSGYSFTSYWIGWVRQMPGKGLEWMGIIDPSDSDTRYSPSFQGQVTISADKSISTAYLQWSSLKASDTAMYYCARHPGLAWAPDFDYWGQGTLVTVSS VL: DIQMTQSPSSLSASVGDRVTITCRASQSIADFLNWYQQKPGKAPKLLIYFASSLQSGVPSRFSGSGSGTDFTLTISSLQPEDFATYYCQQSHSFPLTFGQGTKVEIK | 0.015 nM | 0.138 nM | 0.043 nM | 0.035 nM | 0.033 nM | 0.023 nM | 0.022 nM | 0.06 nM | 0.135 nM | 0.052 nM | 0.049 nM
8 | IFWM3416 (antibody, IgG1, V domains shown, mAb; IgG1/kappa said of the parent and of selected mAbs; also called IFWB3151) VH: EVQLVQSGAEVKKPGESLKISCKGSGYSFTSYWIGWVRQMPGKGLEWMGIIDPSDSDTRYSPSFQGQVTISADKSISTAYLQWSSLKASDTAMYYCARHPGLAWAPDFDYWGQGTLVTVSS VL: DIQMTQSPSSLSASVGDRVTITCRASQSIRNTNLNWYQQKPGKAPKLLIHWASSLQSGVPSRFSGSGSGTDFTLTISSLQPEDFATYYCQQGYDTPFTFGQGTKVEIK | 0.035 nM | 0.112 nM | 0.064 nM | 0.049 nM | 0.028 nM | 0.029 nM | 0.045 nM | 0.068 nM | 0.103 nM | 0.029 nM | 0.069 nM

The remaining lines, values ahead:

Row | IC50, ISRE assay (IFN-αH2) | IC50, ISRE assay (IFN-αC [1]) | IC50, ISRE assay (IFN-αF [2]) | IC50, ISRE assay (IFN-αG [3]) | Kd (human IFN-ω) | Kd (IFN-αC [4]) | Kd (IFN-αF [5]) | Kd (IFN-αJ1) | Kd (IFN-α4a) | Kd (IFN-αG [6]) | Kd (IFN-αWA) | Binder
9 | 0.04 nM | 0.157 nM | 0.058 nM | 0.057 nM | – | – | – | – | – | – | – | IFWM3314 (antibody, IgG1, V domains shown) VH: EVQLVQSGAEVKKPGESLKISCKGSGYSFTSYWIGWVRQMPGKGLEWMGIIDPSDSDTRYSPSFQGQVTISADKSISTAYLQWSSLKASDTAMYYCARHPGLNWAPDFDYWGQGTLVTVSS VL: DIQMTQSPSSLSASVGDRVTITCRASQSIDRALNWYQQKPGKAPKLLIYFASSLQSGVPSRFSGSGSGTDFTLTISSLQPEDFATYYCQQSFDFPLTFGQGTKVEIK
10 | 0.032 nM | 0.996 nM | 0.155 nM | 0.167 nM | – | – | – | – | – | – | – | IFWM3308 (antibody, IgG1, V domains shown) VH: EVQLVQSGAEVKKPGESLKISCKGSGYSFTSYWIGWVRQMPGKGLEWMGIIDPSDSDTRYSPSFQGQVTISADKSISTAYLQWSSLKASDTAMYYCARHPGLNWAPDFDYWGQGTLVTVSS VL: DIQMTQSPSSLSASVGDRVTITCRASQSIAEFLNWYQQKPGKAPKLLIYFASSLQSGVPSRFSGSGSGTDFTLTISSLQPEDFATYYCQQSIDFPLTFGQGTKVEIK
11 | 0.028 nM | 0.266 nM | 0.054 nM | 0.034 nM | – | – | – | – | – | – | – | IFWM3321 (antibody, IgG1, V domains shown) VH: EVQLVQSGAEVKKPGESLKISCKGSGYSFTSYWIGWVRQMPGKGLEWMGIIDPSDSDTRYSPSFQGQVTISADKSISTAYLQWSSLKASDTAMYYCARHPGLNWAPDFDYWGQGTLVTVSS VL: DIQMTQSPSSLSASVGDRVTITCRASQSIDGALNWYQQKPGKAPKLLIYFASSLQSGVPSRFSGSGSGTDFTLTISSLQPEDFATYYCQQAYDFPLTFGQGTKVEIK
12 | 0.033 nM | 0.168 nM | 0.077 nM | 0.055 nM | 0.029 nM | 0.037 nM | 0.052 nM | 0.082 nM | 0.086 nM | 0.052 nM | 0.052 nM | IFWM3410 (antibody, IgG1, V domains shown, mAb; IgG1/kappa said of the parent and of selected mAbs; also called IFWB3145) VH: EVQLVQSGAEVKKPGESLKISCKGSGYSFTSYWIGWVRQMPGKGLEWMGIIDPSDSDTRYSPSFQGQVTISADKSISTAYLQWSSLKASDTAMYYCARHPGLAWAPDFDYWGQGTLVTVSS VL: DIQMTQSPSSLSASVGDRVTITCRASQSIANTNLNWYQQKPGKAPKLLIHWASSLQSGVPSRFSGSGSGTDFTLTISSLQPEDFATYYCQQWYDNPLTFGQGTKVEIK
13 | 0.013 nM | 0.189 nM | 0.029 nM | 0.029 nM | 0.03 nM | 0.025 nM | 0.021 nM | 0.05 nM | 0.088 nM | 0.03 nM | 0.037 nM | IFWM3399 (antibody, IgG1, V domains shown, mAb; IgG1/kappa said of the parent and of selected mAbs; also called IFWB3134) VH: EVQLVQSGAEVKKPGESLKISCKGSGYSFTSYWIGWVRQMPGKGLEWMGIIDPSDSDTRYSPSFQGQVTISADKSISTAYLQWSSLKASDTAMYYCARHPGLAWAPDFDYWGQGTLVTVSS VL: DIQMTQSPSSLSASVGDRVTITCRASQSIDGALNWYQQKPGKAPKLLIYFASSLQSGVPSRFSGSGSGTDFTLTISSLQPEDFATYYCQQAYDFPLTFGQGTKVEIK
